Experimental data reported in the DeepSol protein solubility set.

test: soluble on expression in E. coli; label from the status in PepcDB or PDB records

Sequence	soluble on expression in E. coli
FEKMKKEVEEILYNLKKEGGKYHCILAFSGGKDSVLALKLLKEKFKLNPLCVMVDNKYMAKEAIENALNVTKHYQVDLMILNRDYTDLFEDAIKRGESPCRRCSRLILREVWRVTKLLGLKYIITGHELP	not soluble
GLGRKPHTRILSFEKLEADKFICQHLNLSLGEAVFKLSRLRIADNEPLMVEDTYLPVKFFLSLTDQLLRSKPLYDLFSEDFKQTVRLADEELYASIASKEDAKLLMIPEGAPVLHLARQTYNMKNEIIEFTLSVARADQFHYQIRHIRNS	soluble
ERSIGFDGVMYFYSDTEKIRDAAFEAALQDQLEWKIEGLKPYVIPADKTLSDRICREDILRGVTIAANGFYGPQGRRLRLPLKDEDLNRKIQAFDFNGSRITNYEMESSSLAGLAALMGHEAITVCCIIAGRKSEKMNTSYQGSIEGLIDLVLERI	not soluble
MFKDKKILVIGGTGSIGQALIERILTENPAVIRVYSRDEYKQFLLAEKFRENANIRYLIGDVRDEDRLDRAMNDIDIVFNLAALKHVPACEYNPFEAVRTNVIGSQNVIACAMANKVKKVIYTSSDKAVSPTNTMGATKLLAERLMSSSNYSRGNTGTVFASVRFGNVMGTRGSVIPLFKQQVLEKGYITVTEPEMTRFMMSLSQAVELTIKACSIARGGEVFVLKMPVIRLKDLAEVIIEDMCKKNNIDPEKIEIKKIGLRPGEKMYEELMSEDESTKAVELNDMYVIMPPFENSYYINARKAVIGNYSSQKEKTLTKSQIRELLVREKLI	not soluble
MAFVPPQAGYDRAITVFSPDGRLFQVNYAREAVKRGATAVGVKCNEGVVLAVEKRITSRLIEPESYEKIFQIDDHIAAASSGIIADARVLVNRARLEAQIHRLTYGEPAPLAVIVKKICDLKQMHTQYGGVRPFGAALLMAGVNEKPELYETDPSGAYFAWKAVAIGSGRNTAMAIFEEKYKDDMSLEEAIKLAIFALAKTMEKPSAENIEVAIITVKDKKFRKLSREEIEKYLNEVMKEVEEEEVKEKEEDYSELDSHY	soluble
GPGSMEDRNSVASSVFFTGVSLVIEKEKLRQHFESVGHVVSFTIFGPAPGKDFRYGIVGYMDEKTAEEAIRRLDGTTFGERAMRVTAARSTTLHGPLRAGPGGGGSGPADHSTFRKRPREPYPSLNSSRPPYGPGMGRGGGMRAPIARVSFSAQQQQKQEQSQQPTTDKAGRETMQFPRFYTDPILGRDGSLVLDALRGMATEEAYSAVEQLRVLALERPNEAKRLLHNNPALKSAVIMTLQHAGRIPLGSLPRDAYQSRRAAEAEAELAQPLPPQQPTPSQQSALPTPQQTPPQPPAESLKPAKKEARSAAKSGEARGARKRDTATGSASASAAVPSESQTSLVRPSTPMTEAERDEVLELIQSMSEEDVERVLTMSARDFAQVPDPAQRKQLEVLQKRLLVMSRDL	soluble
MGSDKIHHHHHHMDREIFVSYSVSANSIAGWVAYGGSESFHDMSRGILAARIGIPRLLRMFRKFCIKSSWYVPGIVMETFPDEVRAIYADGHELGTHGYLHEYAPSMSYDQEERVIAKTAELVKDITGHNPYGHLPSQWEESVNTMRILMNHGYKYARGLEDDDFHPFYASTGRSWPRVDYSKLPETWMKPMNLGEKIDFVEIPINWFLNDGTYFNFNKHVPGKRPMSLSEVLENWKAAFDYVYREYEYAIFPVNIHPDTSGNPEVQIFHEKFISYILEHNGASFVSDSFIAEDFRKRYPFPHEFREKVDL	not soluble
MAHHHHHHMRHSTYVEVCLRNIAYNVECIRRIAGKAELIPMVKGNAYGHGMGKVSEYLHNVCGVHTFGVASLGEALELIESQPSIAEKAQNEIFVFSDTEVLNEGCQSYYQPCGRWAVRLTPILGTLPQLKAFCASNAFNNTKLCLKLETGMNRLGLRFDELEEAVPILKQRGGVDLLLQHFGIAGSVERLAETLNHYEAFKNAKKFLHDSGVEVRATSVSNSGAVEQRIGLEETYIRPGIMLYGPRSVTSKNLWNGKFASCFYTKVLHHFPLRKGEGVGYDLTPVKADSVIVMLPIGYADGFLCTYKGMPIKVTPEDAAEPIIGTVHGRINMDMAAVVVYPEEVGKNIGNIMAAVKKESRIHVWGDDIEEKAVSVGAIPHQLTCGLSIRVPRIYM	not soluble
MSLTQFASPVLHSLLDTDAYKLHMQQAVFHHYYDVHVAAEFRCRGDDLLGIYADAIREQVQAMQHLRLQDDEYQWLSALPFFKADYLNWLREFRFNPEQVTVSNDNGKLDIRLSGPWREVILWEVPLLAVISEMVHRYRSPQADVAQALDTLESKLVDFSALTAGLDMSRFHLMDFGTRRRFSREVQETIVKRLQQESWFVGTSNYDLARRLSLTPMGTQAHEWFQAHQQISPDLANSQRAALAAWLEEYPDQLGIALTDCITMDAFLRDFGVEFASRYQGLRHDSGDPVEWGEKAIAHYEKLEIDPQSKTLVFSDNLDLRKAVELYRHFSSRVQLSFGIGTRLTCDIPQVKPLNIVIKLVECNGKPVAKLSDSPGKTICHDKAFVRALRKAFDLPHIKKASEGHHHHHH	soluble
MPINAAYRGPADLPEVIPVFPLAGALLLPRGQMPLNIFEPRYLAMIDDALRDGHRLIGMIQPDAAHSSETAEKPSLFNVGCVGRITQLAESGDGRYILELTGVSRFKVVDELQVLTPYRQCKVDYFPFGDDFTARKGEDEVDRETLLSVLTDFLKANNLKVDWDGVESAPNEALVNALAMMSPYGPPEKQALLEAPDLKTRAEILIAVTEMDLAKKRTSGDPPLQLEHHHHHH	not soluble
MAHHHHHHMRNSLRLRLSSTSSSLLRSTFWLRQCGSGGCGFSGGPGGYPTDADALAKILTQAKKGSFNGSSSSPSDFFDGRFVGGSPTMDPAMLQDMHQKLNQSLTPEVRESMKAMMESIQRGDGMPQMGMMAFGVGENEKGKKVARGAKLMFDPSTGKLSKDFVEKQLEDDDPVLPKETVGDYNTEGAIEVEFEEDARKEASVRENIPEAEVIVEEVPREK	not soluble
MTLPPVGSTLYSKGTHNYKGLFKECATVGSTLYSKGTHNDADNVPVLRLVGSTLYSKGTHNSRLARPPTRLVGSTLYSKGTHNMILDWWLGRWNVQ	not soluble
ENGRYEYIVIGSEAAGVGLVRELTAAGKKVLAVDKSKEKIELLEDEGFDAVIADPTDESFYRSLDLEGVSAVLITGSDDEFNLKILKALRSVSDVYAIVRVSSPKKKEEFEEAGANLVVLVADAVKQAFMDKIKKMETL	not soluble
MNFGACPADIEDDEVVASFNVYASPALVNQAHIFQYPLRRRQRPYEATEIKLFSTSGTVAEESEALLAQGKGSSVLQPGSRLTMKCSLDTFGSPSFRPLPEFAPDMLGQMELQRHHTFNYTLQSQPFLPQSNYVLGYITLEGIHLTPVSTIQQFTPALSIPESSTGAVRVTEAFCSQSNSTAMPGFAAADRIQRELRRQRSRVLNGEADTAQEIQFFRDDSVESSAMRSRLCSSTLERITGNLNAASEPAEVENSLFPPEILQSGGISGGDEAHPSMIIHRFANCKSVAEQTNQLLQRCHILTLQRLQNIVVPYTSNEVVKTMSTVPEAQLVEALKSCAVWLHGVWVSRYCDQFRGSVAALREVILARFYQSEDGSVARADFNAWITTSAARRSIKEILATVAVLNTDEPDPSKRRWRLKYVPEDRAAREANLRDFKAKFAAEEASQHEAWRRRCAQVMAHIPYINAGRPVSQLCLRPRSTPPTTGTAASATLPYGSPNAAQSIAPSVSSMTSGHSGSGVTASASPFSSPAPGADLGFKDADIAPIRHYIRELFAEHGVINKQRVKDLVIKAQEARYPHATKAMLSTALQQCLDKFTDATWILKSAGEPIVDYYRPAILYVVLELRQFEMAALMKRLEEVVRARGLTSPPESAALRGRIGGASGTLEAVVQRVVAEVAEFKAGGRLWHIKGGNLMNE	not soluble
MVNSKVLNTLEYQQVKQQLAPYLVSATGQQALNELHPMTSVADIQRALDETNDGAEVYRLKGGIPVARLADIKPHMKRLAIGATLNGSELGQVGRVLRTTRAITRFFAELLEDAPELEHHHHHH	not soluble
